B1: VH:VL chains; a variant is named by its letters at X, in order (parent)
chain 1: QVQLVQSGAEVKKPGASVKVSCKASGYTFTDYXMHWVRQAPGQGLEWMGXVNPNXXXTTYNQKFEGRVTMTTDTSTSTAYMELRSLRSDDTAVYYCARXNXLDXWGQGTTVTVSS
chain 2: DIQMTQSPSSLSASVGDRVTITCSVSSSVSSIYLHWYQQKPGKAPKLLIYSTSNLASGVPSRFSGSGSGTDFTLTISSLQPEDFATYYCQVYSGYPLTFGGGTKVEIK

Variants of: B1
Assay: yeast display scFab, FACS + sequencing
In short: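 Non-specific binding was called from deep sequencing of sorted yeast cells displaying a heavy-chain CDR mutant scFab library. Cells labelled with anti-Myc and biotinylated ovalbumin (260 μg/mL in PBSB, 3 h, room temperature) or soluble membrane proteins (130 μg/mL, 20 min on ice) were FACS-sorted, collecting the top 25% and bottom 10% of binders from two replicates. A sequence was positive when present in ≥3 of 4 pooled positive samples and absent from all negatives, and negative under the converse rule.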

| Variant | non-specific binding call |
| --- | --- |
| VEGTSSSV | no binding |
| YEGTGAVF | no binding |
| DEGTGALA | no binding |
| SEGRGDGA | no binding |
| DEGGTDSA | no binding |
| DEGGTDSF | no binding |
| SEGTSAVF | no binding |
| FEKEGDAA | no binding |
| YEKGGAGD | no binding |
| VEGTSDGD | no binding |
| YEGRGDVA | no binding |
| DEGGTSAD | no binding |
| DEGGTDVA | no binding |
| DEGGTDVY | no binding |
| DEGGTDVD | no binding |
| DEGGTDVF | no binding |
| SEGRGAWY | no binding |
| YEGGTDGA | no binding |
| DEGTGAVA | no binding |
| DEGKGFGS | binds |
| SEGRGAAA | no binding |
| VEKEGDWY | no binding |

| Variant | non-specific binding call |
| --- | --- |
| SEKEGDAA | no binding |
| VEGTSAVY | no binding |
| VEGTSAVF | no binding |
| VEGGTAGS | no binding |
| VEGTSSGD | no binding |
| YEGTGAGA | no binding |
| SEGGSAAY | no binding |
| VEGTSASV | no binding |
| DEGGTAAA | no binding |
| VEGTSDLS | no binding |
| SEGRGSGV | no binding |
| SEGTGSSV | no binding |
| FEKEADAF | binds |
| SEGTGDWV | no binding |
| DEGGTSLD | no binding |
| VEKEGAGD | no binding |
| DEGKDDVA | no binding |
| YEGGTSGA | no binding |
| VEGRGDVF | no binding |
| DEKEGDAA | no binding |
| YEGTGDVV | no binding |
| DEGGTDAA | no binding |

| Variant | non-specific binding call |
| --- | --- |
| DEGGTDAV | no binding |
| VEGTGAGD | no binding |
| DEGRGSWA | no binding |
| DEGRGDWY | no binding |
| VEGRGAVY | no binding |
| VEGKGAGD | no binding |
| DEGKAAGS | no binding |
| YEKEDYLA chain 1 G108D | no binding |
| DEGGTDWY | no binding |
| DEGGTDWD | no binding |
| DEGGTDWV | no binding |
| YEGGTDVV | no binding |
| VEGTSAAY | no binding |
| DEGGTSGV | no binding |
| YEGTGSGD | no binding |
| SEGRGDVY | no binding |
| VEGRGDGA | no binding |
| VEGRGDGY | no binding |
| VEGGTDVV | no binding |
| VEGGTDVA | no binding |
| SEGGTDVV | no binding |
| SEGRGDAA | no binding |

| Variant | non-specific binding call |
| --- | --- |
| DEGGTAVV | no binding |
| DEGGTAVA | no binding |
| VEKGGDAA | no binding |
| VEGTGDWD | no binding |
| YEGTGSLS | no binding |
| VEGGNDGA | no binding |
| AEGTNAGD | no binding |
| DEGGTDLD | no binding |
| VEGGGYSV | no binding |
| YEKGGAWS | binds |
| VEKEGDGV | no binding |
| VEKEGDGA | no binding |
| VEKEGDGS | no binding |
| VEKEGDAD | no binding |
| VEGTSDVV | no binding |
| AEGGTDVV | no binding |
| YEKETVVA | binds |
| VEGTGVGD | binds |
| VEGTNDVV | no binding |
| VEGRGDAV | no binding |
| VEGTSAGD | no binding |
| DEGGTSVD | no binding |

| Variant | non-specific binding call |
| --- | --- |
| YEGTGSAD | no binding |
| FEGGTDVV | no binding |
| SEGTGSGD | no binding |
| DEGGTALA | no binding |
| VEGTSSLD | no binding |
| DEGRGDGV | no binding |
| YEKETAGV | binds |
| DEGGTAGA | no binding |
| DEGGTAGV | no binding |
| YEGRNVGV | binds |
| DEGTDYAA | binds |
| DEGRSVAA | binds |
| AEGRGAVY | no binding |
| DEGGTSSA | no binding |
| VEKEGDVY | no binding |
| DEGGTDGY | no binding |
| DEGGTDGS | no binding |
| DEGGTDGV | no binding |
| YEGTGSWA | no binding |
| SEGTGAGV | no binding |
| AEGTSAVF | no binding |
